Experimental data as given in paper PMC3914025 (Nature, 2013).

Target: the molecule itself
Assay: crystal structure

B1: NapA from Thermus thermophilus, triple cysteine mutant (Met20, Val166, Val326 to cysteine) (natural protein)
chain: MHGAEHLLEIFYLLLAAQVCAFIFKRLNQPVVIGEVLAGVLVGPALLGLVHEGEILEFLAELGAVFLLFMVGLETRLKDILAVGKEAFLVAVLGVALPFLGGYLYGLEIGFETLPALFLGTALVATSVGITARVLQELGVLSRPYSRIILGAAVIDDVLGLIVLACVNGVAETGQVEVGAITRLIVLSVVFVGLAVFLSTLIARLPLERLPVGSPLGFALALGVGMAALAASIGLAPIVGAFLGGMLLSEVREKYRLEEPIFAIESFLAPIFFAMVGVRLELSALASPVVLVAGTVVTVIAILGKVLGGFLGALTQGVRSALTVGCGMAPRGEVGLIVAALGLKAGAVNEEEYAIVLFMVVFTTLFAPFALKPLIAWTERERAAKEGSENLYFQ
- binding result: binds
